Experimental data from patent publication US20260227403A1.

Columns and labels:
[1] = target: peptides with further truncation from the N-terminus and C-terminus (beyond P40 and P38); experiment: ELISA, 1 µg truncated peptide per well, 20 ng/mL mAb
[2] = target: peptide P40 and peptide P38; experiment: as above

B1: ETV1 rabbit monoclonal antibody (29E4) (antibody, V domains shown)
VH: QELEESGGDLVKPGASLTLTCTASGFFFSAENHICWVRQAPGKGLEWIGCVYIGSYVGGSGDPYYASWAKGRFTISKTSSTTVTLQMSSLTAADTATYFCARDLGSLWGPGTLVTVSS
VL: DVVMTQTASSVSAAVGGTVTIACQSSQSVYDNNNLAWFQQKPGQPPKRLIYSASTLASGVSSRFKGSGYGTQFTLTISDVQCDDAATYYCVGAFSGYIFVFGGGTEVVVK
B1 gave a binding efficiency in comparison to the full-length immunogenic peptide P1 (%) [1] of 75% and a binding efficiency in comparison to the full-length immunogenic peptide P1 (%) [2] of 80 to 100%.
